The target of test [1] is T1, TBD-6 (LC I93A).
T1 construct: Fab; also called LC I93A mutant
Put plainly: competition ELISA, peptide vs Fab binding to captured biotin-TROP2.

In test [2] the target is T2, TBD-1 wt.
T2 construct: Fab; the heavy chain entry is VH-CH1; also called wild-type anti-TROP2 Fab (hRS7); TROP2 Fab
The description is as above.

Test [3] addresses T3, TBD-22 (HC D109A).
T3 construct: Fab; also called HC D109A mutant
The description is as above.

Test [4] has as its target T4, TBD-17 (HC S104A).
T4 construct: Fab; also called HC S104A mutant
The test is described as above.

Test [5] addresses T5, TBD-11 (HC R98A).
T5 construct: Fab; also called HC R98A mutant
Described as above.

Test [6] addresses T6, TBD-21 (HC F108A).
T6 construct: Fab; also called HC F108A mutant
The description is as above.

In test [7] the target is T7, Human TROP2 ECD (31-274 AA), biotinylated (human, UniProt P09758 31-274, biotinylated (site not stated)).
T7 construct: also called tumor-associated calcium signal transducer 2; Human TROP2-biotin
T7 sequence: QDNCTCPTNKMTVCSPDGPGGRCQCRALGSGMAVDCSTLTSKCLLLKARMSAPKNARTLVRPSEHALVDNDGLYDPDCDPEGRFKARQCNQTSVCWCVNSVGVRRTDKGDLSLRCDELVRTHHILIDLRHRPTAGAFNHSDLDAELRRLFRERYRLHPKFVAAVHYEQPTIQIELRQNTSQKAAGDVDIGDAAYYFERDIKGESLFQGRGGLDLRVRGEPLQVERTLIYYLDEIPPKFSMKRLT
Kind of test: ELISA on immobilized TROP2. In general terms: ELISA stands for enzyme-linked immunosorbent assay.

In test [8] the target is T7, Human TROP2 ECD (31-274 AA), …. Put plainly: ELISA on immobilized TROP2. This is another data set of the same source.
In test [9] the target is T1, TBD-6 (LC I93A). Kind of test: competition ELISA, peptide vs Fab binding to captured biotin-TROP2. This is another data set of the same source.
For test [10], the target named is T2, TBD-1 wt. Described as above. The source holds these as a separate data set.
Test [11] deals with T3, TBD-22 (HC D109A). The description is as above. The source holds these as a separate data set.
In test [12] the target is T4, TBD-17 (HC S104A). The description is as above. This is another data set of the same source.
Test [13] has as its target T5, TBD-11 (HC R98A). Described as above. The source holds these as a separate data set.
For test [14], the target named is T6, TBD-21 (HC F108A). The description is as above. The source holds these as a separate data set.

We go through 19 molecules from patent US20230357429A1 (JANUX THERAPEUTICS, published 2023).

Numbering of substitutions follows the chain as printed. Numbers in names are those of the source. Read-outs that look alike come from different tables or passages of the source. Where no end group is shown, it is not given here.

One may read the IC50 as the concentration at which inhibition is half-maximal. A low value points to greater potency. The term EC50 denotes the midpoint of the concentration-response curve.

Turning to EDFCYWYQWPICSD (cysteine pairing not given here; also: biotinylated, site not given here) [Peptide-35], the IC50 with TBD-6 (LC I93A) [1] came to 3.2 µM; with TBD-1 wt [2] it was 4.4 µM; with TBD-22 (HC D109A) [3], 0.87 µM; with TBD-17 (HC S104A) [4], 9.4 µM; with TBD-11 (HC R98A) [5], 21.9 µM; with TBD-21 (HC F108A) [6], 19.2 µM.

B1: PC-12 (bispecific antibody)
light: GGVDFCGLYHWPICYQGGGGSGGLSGRSDAGSPLGLAGSGGSDIQLTQSPSSLSASVGDRVSITCKASQDVSIAVAWYQQKPGKAPKLLIYSASYRYTGVPDRFSGSGSGTDFTLTISSLQPEDFAVYYCQQHYITPLTFGAGTKVEIKRTVAAPSVFIFPPSDEQLKSGTASVVCLLNNFYPREAKVQWKVDNALQSGNSQESVTEQDSKDSTYSLSSTLTLSKADYEKHKVYACEVTHQGLSSPVTKSFNRGEC
heavy: not shown
notes: anti-TROP2 R98A
Turning to B1, in [7], the EC50 worked out at 0.352 µM.

B2: PC-14 (bispecific antibody)
light: B1 light
heavy: not shown
notes: anti-TROP2 F108A
As to B2, the EC50 in test [7] is 0.333 µM.

B3: PC-16 (bispecific antibody)
light: B1 light with V3I, G7A, L8I, H10Q, I13V, Y15R, Q16S
heavy: not shown
notes: anti-TROP2 D109A
In turn, B3 registered an EC50 in test [8] of 0.0698 µM.

B4: PC-22 (bispecific antibody)
light: B1 light with G17V
heavy: not shown
notes: anti-TROP2 R98A
Turning to B4, in [8], it took 0.142 µM to reach a half-maximal effect (EC50).

B5: PC-24 (bispecific antibody)
light: B1 light with G17V
heavy: not shown
notes: anti-TROP2 D109A
As for B5, in test [8], the EC50 was 0.0875 µM.

B6: PC-26 (bispecific antibody)
light: B1 light with G7A, L8I, H10S, Y15K, Q16I
heavy: not shown
notes: anti-TROP2 D109A
The molecule B6 gave an EC50 in test [8] of 0.0543 µM.

B7: PC-20 (bispecific antibody)
light: B1 light with G7A
heavy: not shown
notes: anti-TROP2 D109A
In [8], B7 had an EC50 of 0.0743 µM.

With VDFCGLYHWPICYQVD (cysteine pairing not given here; also: biotinylated, site not given here) [Peptide-39], the IC50 was 0.67 µM with TBD-6 (LC I93A) [1]; 0.46 µM with TBD-1 wt [2]; 0.14 µM with TBD-22 (HC D109A) [3]; 1.69 µM in the test with TBD-17 (HC S104A) [4]; 1.64 µM with TBD-11 (HC R98A) [5]; 2.23 µM in the test with TBD-21 (HC F108A) [6].

Consider VDFCGLYHWPICYQVY (cysteine pairing not given here; also: biotinylated, site not given here) [Peptide-41], for which the concentration for half-maximal inhibition (IC50) in the test with TBD-6 (LC I93A) [1] was 0.58 µM; with TBD-1 wt [2], 0.64 µM; with TBD-22 (HC D109A) [3], 0.11 µM; in the test with TBD-17 (HC S104A) [4], 1.55 µM; in the test with TBD-11 (HC R98A) [5] it was 1.51 µM; with TBD-21 (HC F108A) [6], 1.5 µM.

B8: PC-15 (bispecific antibody)
light: not shown
heavy: GGVDFCGLYHWPICYQGGGGSGGLSGRSDAGSPLGLAGSGGSQVQLQQSGSELKKPGASVKVSCKASGYTFTNYGMNWVKQAPGQGLKWMGWINTYTGEPTYTDDFKGRFAFSLDTSVSTAYLQISSLKADDTAVYFCARGGFGSSYWYADVWGQGSLVTVSSASTKGPSVFPLAPSSKSTSGGTAALGCLVKDYFPEPVTVSWNSGALTSGVHTFPAVLQSSGLYSLSSVVTVPSSSLGTQTYICNVNHKPSNTKVDKKVEPKSC
notes: anti-TROP2 F108A
As to B8, a half-maximal effect in [7] (EC50) was put at 0.363 µM.

B9: TCE-6 (bispecific antibody)
light: DIQLTQSPSSLSASVGDRVSITCKASQDVSIAVAWYQQKPGKAPKLLIYSASYRYTGVPDRFSGSGSGTDFTLTISSLQPEDFAVYYCQQHYITPLTFGAGTKVEIKRTVAAPSVFIFPPSDEQLKSGTASVVCLLNNFYPREAKVQWKVDNALQSGNSQESVTEQDSKDSTYSLSSTLTLSKADYEKHKVYACEVTHQGLSSPVTKSFNRGEC
heavy: not shown
For the molecule B9, the figures for the EC50 in test [7] and in test [8] were 0.00046 µM and 0.00037 µM, respectively.

Take VDFCYLYSWPICTK (cysteine pairing not given here; also: biotinylated, site not given here) [Peptide-40]: the IC50 with TBD-6 (LC I93A) [1] came out at 2.28 µM; with TBD-1 wt [2] it was 3.63 µM; with TBD-22 (HC D109A) [3], 0.58 µM; in the test with TBD-17 (HC S104A) [4] it was 7.26 µM; in the test with TBD-11 (HC R98A) [5], 14.6 µM; with TBD-21 (HC F108A) [6] it was 10 µM.

IDFCMLYNWPICAG (cysteine pairing not given here; also: biotinylated, site not given here) [Peptide-3]: the IC50 was 0.37 µM with TBD-6 (LC I93A) [9]; 0.34 µM with TBD-1 wt [10]; 0.09 µM in the test with TBD-22 (HC D109A) [11]; 1.01 µM in the test with TBD-17 (HC S104A) [12]; 1.48 µM with TBD-11 (HC R98A) [13]; 2.64 µM with TBD-21 (HC F108A) [14]. Also, the IC50 with TBD-6 (LC I93A) [1] amounted to 0.53 µM; with TBD-1 wt [2], 0.43 µM; in the test with TBD-22 (HC D109A) [3], 0.12 µM; with TBD-17 (HC S104A) [4] it was 1.48 µM; with TBD-11 (HC R98A) [5], 2.72 µM; with TBD-21 (HC F108A) [6], 2 µM.

With VDFCYQYGWPICSR (cysteine pairing not given here; also: biotinylated, site not given here) [Peptide-36], the IC50 worked out at 3.8 µM with TBD-6 (LC I93A) [1]; 5.11 µM with TBD-1 wt [2]; 1.72 µM with TBD-22 (HC D109A) [3]; 14.8 µM in the test with TBD-17 (HC S104A) [4]; 19.9 µM with TBD-11 (HC R98A) [5]; 19.9 µM with TBD-21 (HC F108A) [6].

Take VDFCKIYSWPVCHQ (cysteine pairing not given here; also: biotinylated (site not given here)) [Peptide-25]: the IC50 with TBD-6 (LC I93A) [9] is 1.03 µM; with TBD-1 wt [10], 2.58 µM; with TBD-22 (HC D109A) [11] it was 0.14 µM; in the test with TBD-17 (HC S104A) [12], 3.04 µM; with TBD-11 (HC R98A) [13], 8.1 µM; with TBD-21 (HC F108A) [14], 6.45 µM. Moreover, the IC50 with TBD-6 (LC I93A) [1] came out at 1.28 µM; with TBD-1 wt [2] it was 3.03 µM; in the test with TBD-22 (HC D109A) [3], 0.29 µM; with TBD-17 (HC S104A) [4] it was 3.75 µM; with TBD-11 (HC R98A) [5], 18 µM; with TBD-21 (HC F108A) [6], 6.73 µM.

Regarding VDFCSIYHWPVCYV (cysteine pairing not given here; also: biotinylated, site not given here) [Peptide-38], the IC50 in the test with TBD-6 (LC I93A) [1] amounted to 0.52 µM; with TBD-1 wt [2] it was 1.63 µM; with TBD-22 (HC D109A) [3], 0.17 µM; with TBD-17 (HC S104A) [4] it was 2.03 µM; with TBD-11 (HC R98A) [5], 4.42 µM; in the test with TBD-21 (HC F108A) [6], 3.54 µM.

B10: TCE-3 (bispecific antibody)
light: not shown
heavy: QVQLQQSGSELKKPGASVKVSCKASGYTFTNYGMNWVKQAPGQGLKWMGWINTYTGEPTYTDDFKGRFAFSLDTSVSTAYLQISSLKADDTAVYFCAAGGFGSSYWYFDVWGQGSLVTVSSASTKGPSVFPLAPSSKSTSGGTAALGCLVKDYFPEPVTVSWNSGALTSGVHTFPAVLQSSGLYSLSSVVTVPSSSLGTQTYICNVNHKPSNTKVDKKVEPKSC
B10 came in with an EC50 in test [7] of 0.00318 µM.

Turning to VDFCYLYNWPVCSK (cysteine pairing not given here; also: biotinylated, site not given here) [Peptide-37], the IC50 with TBD-6 (LC I93A) [1] was 2.6 µM; with TBD-1 wt [2], 6.28 µM; with TBD-22 (HC D109A) [3], 0.37 µM; with TBD-17 (HC S104A) [4], 4.08 µM; with TBD-11 (HC R98A) [5], 16.6 µM; with TBD-21 (HC F108A) [6], 15.5 µM.
